Data: patent US20250066490A1, “ANTI-CD70 ANTIBODIES, CONJUGATES THEREOF AND METHODS OF USING THE SAME” (ProfoundBio US Co., priority 2021, published 2025)

Experiments:
[1] = biological target: T1, rat CD70 extra-cellular domain (ECD) (Rattus norvegicus, UniProt M0R613); experiment: Biolayer interferometry (BLI), rat CD70; assay type: binding; conditions: for Response: *Response below range of quantification
T1 construct: human, rat, or mouse CD70 extra-cellular domain (ECD) linked to His tag; His tag; purchased ACRO systems
T1 sequence (M0R613 1-194): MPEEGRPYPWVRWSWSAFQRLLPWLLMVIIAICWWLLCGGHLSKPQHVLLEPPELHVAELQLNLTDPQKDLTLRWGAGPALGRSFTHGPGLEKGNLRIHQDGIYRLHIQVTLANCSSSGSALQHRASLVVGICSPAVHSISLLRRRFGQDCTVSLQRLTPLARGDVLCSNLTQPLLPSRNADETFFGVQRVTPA
Procedure: Recombinant proteins consisting of human, rat, or mouse CD70 extra-cellular domain (ECD) linked to His tag was purchased (from ACRO systems). 69A7 and 2E7 (20 nM) were immobilized on anti-human IgG Fc biosensor tips (ForteBio). Binding assays using one concentration (100 nM) of recombinant protein in solution were performed using Octet RED (ForteBio). Association time was set at 180s and dissociation time was set at 300s. Binding affinity was calculated using ForteBio Data Acquisition 6.3 software. Affinity was derived by fitting the kinetic data to a 1:1 Langmuir binding model utilizing global fitting algorithms. […] Binding assays for 2E7 using multiple dilutions (from 200 nM down to 3.13 nM) of species' recombinant CD70 ECD proteins in solution were also performed using the same method.

[2] = test system: cynomolgus CD70 recombinant protein; experiment: Antibody binding ELISA, cynomolgus CD70; conditions: full IgG, FIG. 3
Procedure: The binding specificity of the CD70 antibodies was tested by ELISA according to a standard protocol. Briefly, 96-well micro-plates were coated with 2 μg/ml of human or cynomolgus CD70 recombinant protein in PBS at 100 μl per well and incubated overnight at 4° C. The plates were washed twice with TBS+0.5% Tween20. 200 μL of blocking buffer (2% BSA in PBS) was added to each well, and the plates were incubated at 37° C. for 2 hours. The plates were washed using the wash buffer mentioned above. Serially diluted antibodies were added to the ELISA plates using 100 μl per well, and the plates were incubated for 1 hour at room temperature. Then plates were washed 3 times. HRP conjugated anti-human Fc antibody solution (Sigma, I18885-2ML, diluted with blocking buffer) was added to the plates using 100 μl per well. The plates were incubated at room temperature for 1 hour and then washed 3 times. Then the TMB solution was added to plates using 100 μl per well and the plates were placed at RT for 5-15 mins. Then the stop solution (2M H2SO4) was added using 50 μl per well. The absorbance was measured at A450 and A630.

[3] = Hydrophobic interaction chromatography (HIC); assay type: physicochemical; conditions: full IgG
Procedure: Antibodies were purified from cleared cell culture supernatants using Protein A chromatography (Protein A resin slurry, 4.5 mL, Bogen, Cat #18-0010-02). Briefly, supernatants were prepared for affinity chromatography and loaded onto the columns and allowed to flow completely through the resin. The columns were washed with binding buffer containing 0.15M NaCl and 0.2M PB, PH7.0. Antibody was eluted with elution buffer containing 0.15M NaCl, 0.1M Glycine and 0.2M PB, PH 3.0. Fractions were collected and neutralized by the addition of 1/10 volume of 1M Tris, PH9.0. The fractions were dialyzed for 2 hours against 1×PBS. Purified antibody was quantified by absorbance at A280. Samples from each step of the protein A chromatography were applied onto 12% SDS-PAGE gels for reduced and non-reduced electrophoresis. The hydrophobicity was assessed with hydrophobic interaction chromatography (HIC) on a TSK gel Butyl-NPR, 4.6×100 mm with Butyl-NPR (Tosoh corporation) using a Waters HPLC 2695 system.

786-O cells = experiment: Internalization by FACS immune-fluorescence staining, 786-O; assay type: cell-based, human
Procedure: Briefly, 2×10^5 cells were harvested from a tissue culture flask by treatment with 0.25% Trypsin/EDTA and then incubated with 10 μg/ml of the lead antibodies or control antibodies in FACS buffer (1×PBS with 0.1% BSA) for 30 mins at 4° C. The cells were washed at 4° C. to remove unbound antibodies and kept on ice or shifted to 37° C. At the set time points (0 h, 4 h, 24 h), cells were incubated with PE-conjugated anti human Fc (Abcam, Ab98596) for 30 mins at 4° C. and then analyzed by flow cytometry. The internalization ratio was calculated by subtracting the 37° C. MFI from the 4° C. MFI, and then compared with 4° C. MFI.
(§1) Four cell lines ([…]), Caki-1, Raji, MCF-7) were utilized in the internalization assay. Target (CD70) copy numbers were determined via the QIFIKIT (DAKO, K0078). Briefly, cells were labeled with a primary mouse monoclonal antibody against CD70. Cells, Set-up beads, Calibration beads (from the kit) were then labeled in parallel with a fluorescein-conjugated anti-mouse secondary antibody. The fluorescence is correlated with the number of bound primary antibody molecules on the cells and on the beads. Samples were subsequently analyzed on the flow cytometer and copy number determined based on the calibration curve (Table 11). For internalization assay, 3×10^5 cells were incubated at 4° C. for 30 min with 10 µg/ml 2E7 in FACS buffer (1×PBS containing 0.1% BSA). Cells were washed at 4° C. to remove unbound material and kept on ice or shifted to 37° C. for different lengths of time. At progressive timepoints ([…], 0.5, 1, 2, 3, 4 hr) cells were stained with PE-conjugated anti-human Fc for 30 min at 4° C. and analyzed by flow cytometry. Internalization rate were calculated by subtracting the mean fluorescence intensity (MFI) of cell surface-bound antibody at 37° C. at each time point from the MFI of cell surface-bound antibody at 4° C. at time 0, then divided by the MFI of the cell surface-bound antibody at 4° C. at time 0.

2E7 rat PK = assay type: in vivo, Sprague Dawley rats; conditions: intravenous infusion, 3 mg/kg, FIG. 14
Procedure: 2E7 was administered via intravenous infusion at 3 mg/kg to male Sprague Dawley rats (n=3 per group). Orbital blood was sampled from each rat at various time points post dosing. Circulating concentrations of 2E7 were analyzed by an ELISA assay (ProfoundBio) and calculated using the GraphPad Prism 6 software.

[4] = test system: CD70-negative cell line (MCF-7); experiment: Internalization time course, MCF-7; assay type: cell-based; conditions: MCF-7, up to 4 hr, FIG. 13
Procedure: as §1

Response ([1]; RAT CD70 3.13 nM): *0.0012 | Response ([1]; RAT CD70 6.25 nM): *0.0192 | Response ([1]; RAT CD70 12.5 nM): *−2.762E−03 | Response ([1]; RAT CD70 25 nM): *0.0069 | Response ([1]; RAT CD70 50 nM): *0.0126 | Response ([1]; RAT CD70 100 nM, dilution series): *0.0271 | Response ([1]; RAT CD70 200 nM): *0.0054 | ka ([1]; RAT CD70, multiple dilutions 200-3.13 nM, global fit, responses below range of quantification): 5.905e+06 M⁻¹ s⁻¹ | Response ([1]; Rat CD70 100 nM, one concentration): *0.0125 | ka ([1]; Rat CD70 100 nM, one concentration, response below range of quantification): 4641 M⁻¹ s⁻¹ | cross-reactivity to rat CD70 ([1]; multiple dilutions, Table 10): no cross-reactivity | cross-reactivity to rat CD70 ([1]; one concentration (100 nM), Table 9): no cross-reactivity
B1: 2E7: anti-CD70 antibody clone, VH SEQ 7 and VL SEQ 8; tested as scFv and full human IgG1/kappa (antibody, V domains shown)
VH: QVQLQESGPGLVKPSETLSLTCTVSGGSVSSDYYYWSWIRQPPGKGLEWLGYIYYSGSTNYNPSLKSRVTISVDTSKNQFSLKLRSVTTADTAVYYCARGDGDFLGVCFDYWGQGTLVTVSS
VL: EIVLTQSPATLSLSPGERATLSCRASQSVSSYLAWYQQKPGQAPRLLIFDASNRATGIPARFSGSGSGTDFTLTISSLEPEDFAVYYCQQRSNWPLTFGGGTKVEIK
modifications: Synthetic 2E7 VH amino acid sequence; Synthetic 2E7 VL amino acid sequence
notes: tested as scFv and full human IgG1/kappa
cross binding activity to the cyno-antigen [2]: better cross binding activity to the cyno-antigen than antibody 69A7 | hydrophobicity compared with the parent antibody 69A7 ([3]; HIC): slightly more hydrophobic than the parent antibody 69A7 | Retention time ([3]; hydrophobicity by HIC): 10.19 min | absolute amount of antibody internalized into cell vs parent antibody 69A7 (786-O cells; based on the cell binding affinity): higher absolute amount of antibody internalized into cell than the parent antibody 69A7 | internalization, time course (786-O cells; up to 4 hr, FIG. 13): rapid internalization | plasma PK (2E7 rat PK): stable plasma PK in rat that is characteristic of IgG1 antibodies | internalization, time course [4]: no internalization
